# Reference: patent US20260001928A1 (CORTERIA PHARMACEUTICALS, priority 2022, published 2026)
# *1 amine or outer side, *2 acyl side, *3 side chain or, on linkers, in order; H or OH if unused. Where no end group is shown, it is not given here. Side-chain parts run from the residue outwards. [ ]: non-standard residue; d: D form. The star is where a group is joined. C18 diacid = O=C(O)CCCCCCCCCCCCCCCCC(=O)*; C16 diacid = O=C(O)CCCCCCCCCCCCCCC(=O)*; γGlu = O=C(O)[C@H](CCC(=O)[*:2])N[*:1]; NMeI = CC[C@H](C)[C@H](NC)C(=O)O; Api = NC1(C(=O)O)CCNCC1; Abu = CC[C@H](N)C(=O)O; AEEA = NCCOCCOCC(=O)O
# B1: SEQ ID NO 116 (peptide)
# peptide: [NMeI]VLSLD[dV]PIKLK([AEEA-AEEA-γGlu-C18 diacid])KILLEQEKQKKQREQAETNEQILAQV-NH2
# modifications: N-terminus assumed
# SMILES: CC[C@H](C)[C@H](NC)C(=O)N[C@H](C(=O)N[C@@H](CC(C)C)C(=O)N[C@@H](CO)C(=O)N[C@@H](CC(C)C)C(=O)N[C@@H](CC(=O)O)C(=O)N[C@@H](C(=O)N1CCC[C@H]1C(=O)N[C@H](C(=O)N[C@@H](CCCCN)C(=O)N[C@@H](CC(C)C)C(=O)N[C@@H](CCCCNC(=O)COCCOCCNC(=O)COCCOCCNC(=O)CC[C@H](NC(=O)CCCCCCCCCCCCCCCCC(=O)O)C(=O)O)C(=O)N[C@@H](CCCCN)C(=O)N[C@H](C(=O)N[C@@H](CC(C)C)C(=O)N[C@@H](CC(C)C)C(=O)N[C@@H](CCC(=O)O)C(=O)N[C@@H](CCC(N)=O)C(=O)N[C@@H](CCC(=O)O)C(=O)N[C@@H](CCCCN)C(=O)N[C@@H](CCC(N)=O)C(=O)N[C@@H](CCCCN)C(=O)N[C@@H](CCCCN)C(=O)N[C@@H](CCC(N)=O)C(=O)N[C@@H](CCCNC(=N)N)C(=O)N[C@@H](CCC(=O)O)C(=O)N[C@@H](CCC(N)=O)C(=O)N[C@@H](C)C(=O)N[C@@H](CCC(=O)O)C(=O)N[C@H](C(=O)N[C@@H](CC(N)=O)C(=O)N[C@@H](CCC(=O)O)C(=O)N[C@@H](CCC(N)=O)C(=O)N[C@H](C(=O)N[C@@H](CC(C)C)C(=O)N[C@@H](C)C(=O)N[C@@H](CCC(N)=O)C(=O)N[C@H](C(N)=O)C(C)C)[C@@H](C)CC)[C@@H](C)O)[C@@H](C)CC)[C@@H](C)CC)C(C)C)C(C)C
# B2: SEQ ID NO 71 (peptide)
# peptide: [NMeI]VLSLD[dV]PIKLK([γGlu-C16 diacid])KILLEQEKQKKQREQAETNEQILAQV-NH2
# modifications: N-terminus assumed
# SMILES: CC[C@H](C)[C@H](NC)C(=O)N[C@H](C(=O)N[C@@H](CC(C)C)C(=O)N[C@@H](CO)C(=O)N[C@@H](CC(C)C)C(=O)N[C@@H](CC(=O)O)C(=O)N[C@@H](C(=O)N1CCC[C@H]1C(=O)N[C@H](C(=O)N[C@@H](CCCCN)C(=O)N[C@@H](CC(C)C)C(=O)N[C@@H](CCCCNC(=O)CC[C@H](NC(=O)CCCCCCCCCCCCCCC(=O)O)C(=O)O)C(=O)N[C@@H](CCCCN)C(=O)N[C@H](C(=O)N[C@@H](CC(C)C)C(=O)N[C@@H](CC(C)C)C(=O)N[C@@H](CCC(=O)O)C(=O)N[C@@H](CCC(N)=O)C(=O)N[C@@H](CCC(=O)O)C(=O)N[C@@H](CCCCN)C(=O)N[C@@H](CCC(N)=O)C(=O)N[C@@H](CCCCN)C(=O)N[C@@H](CCCCN)C(=O)N[C@@H](CCC(N)=O)C(=O)N[C@@H](CCCNC(=N)N)C(=O)N[C@@H](CCC(=O)O)C(=O)N[C@@H](CCC(N)=O)C(=O)N[C@@H](C)C(=O)N[C@@H](CCC(=O)O)C(=O)N[C@H](C(=O)N[C@@H](CC(N)=O)C(=O)N[C@@H](CCC(=O)O)C(=O)N[C@@H](CCC(N)=O)C(=O)N[C@H](C(=O)N[C@@H](CC(C)C)C(=O)N[C@@H](C)C(=O)N[C@@H](CCC(N)=O)C(=O)N[C@H](C(N)=O)C(C)C)[C@@H](C)CC)[C@@H](C)O)[C@@H](C)CC)[C@@H](C)CC)C(C)C)C(C)C
# B3: SEQ ID NO 72 (peptide)
# peptide: [NMeI]VLSLD[dV]PIKLK([γGlu-C16 diacid])KILLEQEKQKKQREQAETN[Api]QILAQV-NH2
# modifications: N-terminus assumed
# SMILES: CC[C@H](C)[C@H](NC)C(=O)N[C@H](C(=O)N[C@@H](CC(C)C)C(=O)N[C@@H](CO)C(=O)N[C@@H](CC(C)C)C(=O)N[C@@H](CC(=O)O)C(=O)N[C@@H](C(=O)N1CCC[C@H]1C(=O)N[C@H](C(=O)N[C@@H](CCCCN)C(=O)N[C@@H](CC(C)C)C(=O)N[C@@H](CCCCNC(=O)CC[C@H](NC(=O)CCCCCCCCCCCCCCC(=O)O)C(=O)O)C(=O)N[C@@H](CCCCN)C(=O)N[C@H](C(=O)N[C@@H](CC(C)C)C(=O)N[C@@H](CC(C)C)C(=O)N[C@@H](CCC(=O)O)C(=O)N[C@@H](CCC(N)=O)C(=O)N[C@@H](CCC(=O)O)C(=O)N[C@@H](CCCCN)C(=O)N[C@@H](CCC(N)=O)C(=O)N[C@@H](CCCCN)C(=O)N[C@@H](CCCCN)C(=O)N[C@@H](CCC(N)=O)C(=O)N[C@@H](CCCNC(=N)N)C(=O)N[C@@H](CCC(=O)O)C(=O)N[C@@H](CCC(N)=O)C(=O)N[C@@H](C)C(=O)N[C@@H](CCC(=O)O)C(=O)N[C@H](C(=O)N[C@@H](CC(N)=O)C(=O)NC1(C(=O)N[C@@H](CCC(N)=O)C(=O)N[C@H](C(=O)N[C@@H](CC(C)C)C(=O)N[C@@H](C)C(=O)N[C@@H](CCC(N)=O)C(=O)N[C@H](C(N)=O)C(C)C)[C@@H](C)CC)CCNCC1)[C@@H](C)O)[C@@H](C)CC)[C@@H](C)CC)C(C)C)C(C)C
# B4: SEQ ID NO 126 (peptide)
# peptide: Ac-IVLSLD[dV]PIKLK([γGlu-C18 diacid])KILLEQEKQKKQREQAETNAQILAQV-NH2
# SMILES: CC[C@H](C)[C@H](NC(C)=O)C(=O)N[C@H](C(=O)N[C@@H](CC(C)C)C(=O)N[C@@H](CO)C(=O)N[C@@H](CC(C)C)C(=O)N[C@@H](CC(=O)O)C(=O)N[C@@H](C(=O)N1CCC[C@H]1C(=O)N[C@H](C(=O)N[C@@H](CCCCN)C(=O)N[C@@H](CC(C)C)C(=O)N[C@@H](CCCCNC(=O)CC[C@H](NC(=O)CCCCCCCCCCCCCCCCC(=O)O)C(=O)O)C(=O)N[C@@H](CCCCN)C(=O)N[C@H](C(=O)N[C@@H](CC(C)C)C(=O)N[C@@H](CC(C)C)C(=O)N[C@@H](CCC(=O)O)C(=O)N[C@@H](CCC(N)=O)C(=O)N[C@@H](CCC(=O)O)C(=O)N[C@@H](CCCCN)C(=O)N[C@@H](CCC(N)=O)C(=O)N[C@@H](CCCCN)C(=O)N[C@@H](CCCCN)C(=O)N[C@@H](CCC(N)=O)C(=O)N[C@@H](CCCNC(=N)N)C(=O)N[C@@H](CCC(=O)O)C(=O)N[C@@H](CCC(N)=O)C(=O)N[C@@H](C)C(=O)N[C@@H](CCC(=O)O)C(=O)N[C@H](C(=O)N[C@@H](CC(N)=O)C(=O)N[C@@H](C)C(=O)N[C@@H](CCC(N)=O)C(=O)N[C@H](C(=O)N[C@@H](CC(C)C)C(=O)N[C@@H](C)C(=O)N[C@@H](CCC(N)=O)C(=O)N[C@H](C(N)=O)C(C)C)[C@@H](C)CC)[C@@H](C)O)[C@@H](C)CC)[C@@H](C)CC)C(C)C)C(C)C
# B5: SEQ ID NO 127 (peptide)
# peptide: Ac-IVLSLD[dV]PIKLK([γGlu-C18 diacid])KILLEQEKQKKQREQAETN[Abu]QILAQV-NH2
# SMILES: CC[C@H](NC(=O)[C@H](CC(N)=O)NC(=O)[C@@H](NC(=O)[C@H](CCC(=O)O)NC(=O)[C@H](C)NC(=O)[C@H](CCC(N)=O)NC(=O)[C@H](CCC(=O)O)NC(=O)[C@H](CCCNC(=N)N)NC(=O)[C@H](CCC(N)=O)NC(=O)[C@H](CCCCN)NC(=O)[C@H](CCCCN)NC(=O)[C@H](CCC(N)=O)NC(=O)[C@H](CCCCN)NC(=O)[C@H](CCC(=O)O)NC(=O)[C@H](CCC(N)=O)NC(=O)[C@H](CCC(=O)O)NC(=O)[C@H](CC(C)C)NC(=O)[C@H](CC(C)C)NC(=O)[C@@H](NC(=O)[C@H](CCCCN)NC(=O)[C@H](CCCCNC(=O)CC[C@H](NC(=O)CCCCCCCCCCCCCCCCC(=O)O)C(=O)O)NC(=O)[C@H](CC(C)C)NC(=O)[C@H](CCCCN)NC(=O)[C@@H](NC(=O)[C@@H]1CCCN1C(=O)[C@H](NC(=O)[C@H](CC(=O)O)NC(=O)[C@H](CC(C)C)NC(=O)[C@H](CO)NC(=O)[C@H](CC(C)C)NC(=O)[C@@H](NC(=O)[C@@H](NC(C)=O)[C@@H](C)CC)C(C)C)C(C)C)[C@@H](C)CC)[C@@H](C)CC)[C@@H](C)O)C(=O)N[C@@H](CCC(N)=O)C(=O)N[C@H](C(=O)N[C@@H](CC(C)C)C(=O)N[C@@H](C)C(=O)N[C@@H](CCC(N)=O)C(=O)N[C@H](C(N)=O)C(C)C)[C@@H](C)CC
# B6: SEQ ID NO 129 (peptide)
# peptide: Ac-IVLSLD[dV]PIKLK([γGlu-C18 diacid])KILLEQEKQKKQREQAETN[Api]QILAQV-NH2
# SMILES: CC[C@H](C)[C@H](NC(C)=O)C(=O)N[C@H](C(=O)N[C@@H](CC(C)C)C(=O)N[C@@H](CO)C(=O)N[C@@H](CC(C)C)C(=O)N[C@@H](CC(=O)O)C(=O)N[C@@H](C(=O)N1CCC[C@H]1C(=O)N[C@H](C(=O)N[C@@H](CCCCN)C(=O)N[C@@H](CC(C)C)C(=O)N[C@@H](CCCCNC(=O)CC[C@H](NC(=O)CCCCCCCCCCCCCCCCC(=O)O)C(=O)O)C(=O)N[C@@H](CCCCN)C(=O)N[C@H](C(=O)N[C@@H](CC(C)C)C(=O)N[C@@H](CC(C)C)C(=O)N[C@@H](CCC(=O)O)C(=O)N[C@@H](CCC(N)=O)C(=O)N[C@@H](CCC(=O)O)C(=O)N[C@@H](CCCCN)C(=O)N[C@@H](CCC(N)=O)C(=O)N[C@@H](CCCCN)C(=O)N[C@@H](CCCCN)C(=O)N[C@@H](CCC(N)=O)C(=O)N[C@@H](CCCNC(=N)N)C(=O)N[C@@H](CCC(=O)O)C(=O)N[C@@H](CCC(N)=O)C(=O)N[C@@H](C)C(=O)N[C@@H](CCC(=O)O)C(=O)N[C@H](C(=O)N[C@@H](CC(N)=O)C(=O)NC1(C(=O)N[C@@H](CCC(N)=O)C(=O)N[C@H](C(=O)N[C@@H](CC(C)C)C(=O)N[C@@H](C)C(=O)N[C@@H](CCC(N)=O)C(=O)N[C@H](C(N)=O)C(C)C)[C@@H](C)CC)CCNCC1)[C@@H](C)O)[C@@H](C)CC)[C@@H](C)CC)C(C)C)C(C)C
# Target: T1, CRF1R receptor (UniProt P34998 24-415, limits assumed)
# T1 sequence (looked up): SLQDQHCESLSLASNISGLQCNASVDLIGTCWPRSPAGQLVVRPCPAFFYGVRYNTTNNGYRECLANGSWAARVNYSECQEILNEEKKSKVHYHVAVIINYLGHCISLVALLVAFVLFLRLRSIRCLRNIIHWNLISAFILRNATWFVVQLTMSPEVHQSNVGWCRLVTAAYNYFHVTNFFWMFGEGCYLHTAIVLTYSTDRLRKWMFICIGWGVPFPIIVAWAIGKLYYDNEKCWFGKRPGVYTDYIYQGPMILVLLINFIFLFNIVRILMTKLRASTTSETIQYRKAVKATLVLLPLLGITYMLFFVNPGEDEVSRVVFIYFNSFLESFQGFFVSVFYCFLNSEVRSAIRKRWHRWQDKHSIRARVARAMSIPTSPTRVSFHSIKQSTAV
# Test: cell-based or functional assay
Binder,Emax (% I) [%],EC50 [nM]
B1,0,
B2,-4,
B3,18,
B4,20,
B5,11,
B6,39,236

# Target: human corticotropin-releasing factor 2a (CRF2a receptor) (human), Q13324
# Test: cell-based or functional assay
# human corticotropin-releasing factor 2a (CRF2a receptor) (human), Q13324, sequence (Q13324 20-411): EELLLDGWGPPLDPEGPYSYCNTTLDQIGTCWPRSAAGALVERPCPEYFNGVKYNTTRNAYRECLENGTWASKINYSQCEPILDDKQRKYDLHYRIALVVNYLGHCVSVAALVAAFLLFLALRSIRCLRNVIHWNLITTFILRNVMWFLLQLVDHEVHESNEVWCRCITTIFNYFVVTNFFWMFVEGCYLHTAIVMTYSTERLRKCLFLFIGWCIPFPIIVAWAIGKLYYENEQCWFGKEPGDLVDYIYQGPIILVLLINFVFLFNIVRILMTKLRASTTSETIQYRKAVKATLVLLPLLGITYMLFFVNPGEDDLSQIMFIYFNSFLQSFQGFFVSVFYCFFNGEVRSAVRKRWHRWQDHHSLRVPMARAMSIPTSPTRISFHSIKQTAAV
row,Binder,EC50 [nM] (cAMP)
1,B1,0.37
2,B2,0.21
3,B3,0.14
4,B4,0.05
5,B5,0.08
6,B6,0.14
